“Also recorded” adds a separate entry of the source.
Experiments:
[1] = target: T1, BMPR1A (Homo sapiens, UniProt P36894); test: Enzyme-linked immune sorbent assay for receptor binding (BMPR1A); details: peptide on p3 of M13 phage; absorbance 450 nm; n=4; vs wild type phage
T1 construct: purchased G&P Biosciences
Description: Groups having the same lowercase letter assigned (above the bar) were not statistically different from each other. Groups having different letters assigned (above the bar) were statistically different from each other. […] The primary antibody was mouse anti-g3p (p8) IgG. The secondary antibody was anti-mouse IgG conjugated with horseradish peroxidase. The substrate, 3,3′,5,5′-Tetramethylbenzidine was detected at 450 nm after stopping the reaction with 1 M HCl.
Blocking buffer (0.1 M NaHCO3 (pH 8.6), 5 mg/ml BSA. Filter sterilized, stored at 4° C.) was prepared. TBS (50 mM Tris-HCl (pH 7.5), 150 mM NaCl, autoclaved, stored at room temperature) was prepared. Separate solutions of the target receptors were then made. For BMPR1A, a 10 μg/ml stock solution was made. For BMPR2, a 10 μg/ml solution was also made. Separate wells with n=4 for each different peptide bearing phage group were then coated with one of the receptors. The coating was done by adding 100 μl of the target solution to wells of a 96-well plate followed by swirling until the surface was completely wet. The plates were then allowed to incubate overnight at 4° C. with gentle agitation in a humidified container (a plastic box lined with damp paper towels). Any excess target solution was then removed, and the plate was slapped face-down on a clean paper towel. The wells of the plate were then blocked with 200 μl of blocking buffer for 1 hour at room temperature. […] The blocking buffer was then removed from each plate followed by 5 washes with 200 μl of TBST. Each time the plate was slapped against a clean section of paper towel face-down. […] After a brief pilot test, it should be noted that using 10^10 phage/ml was determined to work best, but other concentrations of virus also worked consistently. […] Then, […] of freshly prepared 3,3′,5,5′-Tetramethylbenzidine (TMB) was added to each well and the absorbance at 370 nm and 652 nm was monitored for 1 hour using an ELISA plate reader. […] The absorbance at 450 nm for each well was then measured.

[2] = target: T1, BMPR1A; test: Biopanning of Ph.D.-12 phage library on immobilized BMPR1A-Fc; format: binding; details: peptide displayed on p3 of M13 phage; 3 rounds of panning
Experimental: The Ph.D.™-12 phage library was diluted in tris-buffered saline mixed with Tween-20 (TBS+0.1% v/v Tween-20 and abbreviated TBST) for a final concentration of 2×10^11 phage in 1 mL of TBST. The diluted library was then pipetted onto one of the wells of a 12-well poly-L-lysine plate followed by rocking the plate gently for 60 minutes at room temperature. […] This supernatant served as the starting phage library for subsequent binding selections. The phages which stuck to the plate were discarded.
This procedure is only applicable if the charge of the desired protein to be immobilized is negative, determined by checking the pI value of the protein. […]. This procedure was written for 12-well plates coated in poly-L-lysine (positively charged). Separate solutions of BMPR1A-Fc and BMPR2-Fc were prepared at 80 μg/ml in Tris-buffered saline (pH 7.5). In separate wells and on separate poly-L-lysine coated 12-well plates, 0.3 ml of each solution of receptor was added. The solutions of BMPR1A-Fc and BMPR2-Fc were swirled around the plate surface until the entire surface was wet. The plates were then incubated overnight at 4° C. with gentle agitation in a humidified container (a sealed plastic box with damp paper towels). Each individual receptor was now immobilized.
The following selection procedure is based off of the direct coating procedure outlined in the Ph.D.™-12 Phage Display Libraries instructional manual (New England Biolabs) with some alterations. This procedure was carried out after immobilizing the targets BMPR1A-Fc and BMPR2-Fc in a 12-well poly-L-lysine coated plate. A stock solution of tetracycline was prepared (20 mg/ml in 1:1 ethanol:water). The coating solution containing the target receptors was poured off followed by firmly slapping the plates face down on a clean paper towel. Each well was then filled with blocking buffer (0.1 M NaHCO3 (pH 8.6), 5 mg/mL BSA, 0.02% NaN3. Filter sterilize, store at 4° C.) and incubated for 1 hour at 4° C. The blocking solution was then poured off followed by firmly slapping the plates down against a clean paper towel. Each plate was washed rapidly 6 times with Tris-buffered saline mixed with Tween-20 (TBS+0.1% v/v Tween-20). The plate was slapped against a clean paper towel each time. 1 ml of the phage library created from the negative selection process was then pipetted onto each of the target coated wells. The plates were then rocked gently at room temperature for 60 min. The non-binding phages were then discarded by pouring off the supernatant and slapping the plate face-down on a clean paper towel. The plate was then washed 10 times with TBST followed by slapping the plate face-down on a clean paper towel each time (a clean section of paper towel was used each time to prevent cross-contamination). The bound phages were then eluted by incubating with a nonspecific disruption buffer (0.2 M Glycine-HCl (pH 2.2), 1 mg/ml bovine serum albumin (BSA) for 15 minutes. The eluate (immersed in the disruption buffer) was then pipetted into a microcentrifuge tube followed by neutralization with 150 μl of 1 M Tris-HCl (pH 9.1). A small portion (˜1 μl) of this eluate could be titered and sequenced if desired. The rest of the eluate was amplified (see amplification of phage library section). Once amplified, the eluate was also titered. Determine the concentration of amplified phages by counting the blue plaques in titering as described. Dilute the amplified library to contain 2×10^11 phages in 1 mL of TBS (as little as 10^9 plaque forming units per ml can be used if there is not enough). A second poly-L-lysine 12-well plate was then coated with the target receptors to allow for a second round of biopanning carried out using the same steps except that the Tween-20 concentration in the wash steps was raised to 0.5% (v/v). The eluate from the second round was then amplified, titered and used in an additional 3rd round of panning on newly receptor coated plates. […]

T1 sequence (P36894 24-152 limits assumed): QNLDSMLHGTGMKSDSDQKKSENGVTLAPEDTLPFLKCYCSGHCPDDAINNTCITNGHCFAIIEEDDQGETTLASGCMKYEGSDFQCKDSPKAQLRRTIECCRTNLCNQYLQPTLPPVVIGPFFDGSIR

SGTQDSMVGWNK (Completely synthesized in the lab - Ph.D.-12 Phage Display Peptide Library Kit (New England Biolabs))
Relative binding strength in ELISA to BMPR1A [1]: best binders
Binding to BMPR1A found by biopanning (frequency among sequenced plaques) [2]: showed up as a result of biopanning on both BMPR1A alone and BMPR2 alone; also recorded: discovered to bind

VHVPLHRGAVSA (Completely synthesized in the lab - Ph.D.-12 Phage Display Peptide Library Kit (New England Biolabs))
Relative binding strength in ELISA to BMPR1A [1]: best binders
Binding to BMPR1A found by biopanning (frequency among sequenced plaques) [2]: discovered to bind

Source: patent US20210369812A1, “OSTEOINDUCTIVE PEPTIDES, COMPOSITIONS, IMPLANTS, AND METHODS OF USE” (The Board of Regents of the University of Oklahoma, priority 2018, published 2021)
